Data set [1] concerns MS2 coat protein. Description: apparent KD of MS2 coat protein, switch ON state; designed switch direction (-1 OFF switch, 1 ON switch): -1; higher = weaker reporter binding. The settings on record: FMN input: 0 or 200 uM; Eterna round: R93 (includes R88 designs). The essentials: (§1)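 Designed RNA switches, transcribed on-chip from Illumina sequencing clusters, were titrated with SNAP-549-labelled MS2 coat protein from 0.7 or 1.5 nM to 3 µM in twofold steps. The solution was 100 mM Tris-HCl pH 7.5, 80 mM KCl, 4 mM MgCl2, with constant ligand or without it. Apparent KD is the median over each design's normalised cluster binding-curve fits.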

The test system of data set [2] is MS2 coat protein. Description: apparent KD of MS2 coat protein, switch OFF state (with FMN for OFF switches, without FMN for ON switches); designed switch direction (-1 OFF switch, 1 ON switch): -1; higher = weaker reporter binding. The conditions noted are these: FMN input: 0 or 200 uM; Eterna round: R93 (includes R88 designs). The essentials: as §1

We go through 40 sequences from the supplement of paper PMC9170038.

On to “AAAUUGUCAGGAUAUCGUAUAAUAUGGAAAACAUAGAGAUACGAGAAGGGACAUGAGGAUCACCCAUGUAAAAC [May 96]”, for which the “apparent KD of MS2 coat protein” value in data set [1] was determined as 36.1 nM; in data set [2] it was 31.1 nM.
The matching figures for “AACAAACAUGAGGAUCACCCAUGUCAGGAUAUGCAAACAACAAACAACAAACAACAAAGCAGAAGGGAUAGGAA [63%, Olong, 4]”: 27.1 nM and 21.2 nM.
With “AACAAGUCAGGAUAUUCGACAAGUAAAUAAGUAAAUCAAAAGAAGAAGGGACAUGAGGAUCACCCAUGUAAAUA [JR_Exc004_Sub401]”, the “apparent KD of MS2 coat protein” value was 32.5 nM in data set [1] and 21.3 nM in data set [2].
With “AACAGGUCAGGAUAUGUGGAAAAAAUAAAAAAAAAUAAAACACAGAAGGGACAUGAGGAUCACCCAUGUAAACA [Mat - Exclusion 4 - Mayanna - D143]”, the “apparent KD of MS2 coat protein” value in data set [1] was 49.3 nM; in data set [2], 56.8 nM.
Turning to “AACAGGUCAGGAUAUGUGGAAAAAAUAAAAAAAAUAAAAACACAGAAGGGACAUGAGGAUCACCCAUGUAAAAA [May 20]”, the “apparent KD of MS2 coat protein” value in data set [1] was 59.5 nM; in data set [2], 75.6 nM.
Turning to “AACAGUACAGGAUAUACAUGAGGAUCACCCAUGUGAGAGGAAUAAAACAAAAAUAAAAGUAGAAGGGUACUGGA [Ruby 45]”, the “apparent KD of MS2 coat protein” value in data set [1] came out at 35 nM; in data set [2], 106 nM.
As for “AACAGUACAGGAUAUACAUGAGGAUCACCCAUGUGAGCAUUAAAAGGCGUACCUAAAAGUAGAAGGGUACUGGA [JL Maslow Revisted mod 22]”, the “apparent KD of MS2 coat protein” value in data set [1] was 24.8 nM; in data set [2] it was 66.7 nM.
In the case of “AACAGUACAGGAUAUACAUGAGGAUCACCCAUGUGAGCAUUAAAAGGCGUACCUCAAAGUAGAAGGGUACUGGA [JL Maslow Revisted mod 23]”, the entries for the “apparent KD of MS2 coat protein” value in data set [1] and in data set [2] were 107 nM and 18.9 nM, respectively.
Consider “AACAGUACAGGAUAUACAUGAGGAUCACCCAUGUGGGAAAAAAGAUCGAGAGAUCAAUGUAGAAGGGUACUGGA [JL In the Red 03]”, for which the “apparent KD of MS2 coat protein” value in data set [1] was found to be 161 nM; in data set [2], 427 nM.
As to “AACAUACAUGAGGAUCACCCAUGUCAGGAUAUGCCGGGUUAGAGCCAACUGAAAAAACGUAGAAGGGACGAAAA [Bilbo Confounded 7 - Jieux - Exclusion 1]”, the “apparent KD of MS2 coat protein” value in data set [1] worked out at 110 nM; in data set [2], 90.3 nM.
Consider “AACAUGUGAGGAUAUAAAAUGAAUAUAAAUUAUUAUCUUGAUUAGAAGGCACAUGAGGAUCACCCAUGUCUGAA [E4-1.2]”, for which the figures for the “apparent KD of MS2 coat protein” value in data set [1] and in data set [2] were 23.8 nM and 25.2 nM, respectively.
Turning to “AACUAACAUGAGGAUCACCCAUGUCAGGAUAUGCAAAGAUCGAUCGAACGAUCGAUAAGCAGAAGGGACAAAAA [Amethyst 95]”, the “apparent KD of MS2 coat protein” value in data set [1] is 23.3 nM; in data set [2], 36.9 nM.
Take “AACUGACAUGAGGAUCACCCAUGUCAGGAUAUGAUUUGACGAAAUAAAUAAAGUCAUAUCAGAAGGGACAUGGA [Design 80: Sub-opt U]”: the “apparent KD of MS2 coat protein” value in data set [1] is 25 nM; in data set [2], 50.4 nM.
In the case of “AACUGACAUGAGGAUCACCCAUGUCAGGAUAUGCUUCUAGGAAAAAUAAAAACUAGAUGCAGAAGGGAUAUGGG [Design 38]”, the “apparent KD of MS2 coat protein” value in data set [1] turned out to be 22.2 nM; in data set [2], 33.3 nM.
On to “AACUGGGCAGGAUAUACAUGAGGAUCACCCAUGUAAAGAAAAGAAAGAUCCGAGGAAAGUAGAAGGGCCUGGAA [Variant 4 of Mod 1 of Ex3 sub 3, by Tesla's Dusciple Round 1]”, for which the “apparent KD of MS2 coat protein” value was found to be 55.6 nM in data set [1] and 91.3 nM in data set [2].
For the sequence “AAGAAACAUGAGGAUCACCCAUGUGAGGAUAUCUAAAAGAAAAGAAAAGAAAGAAGAAGGAGAAGGCACAAAGG [H—]”, the “apparent KD of MS2 coat protein” value in data set [1] is 34.3 nM; in data set [2] it was 29 nM.
The matching figures for “AAGAAACAUGAGGAUCACCCAUGUGAGGAUAUUGAAGAAAGAAAGAAAGAAAGAAGAACAAGAAGGCACAAAGG [Quintus Magnus Maximus]”: 26.9 nM and 35 nM.
Regarding “AAGAACCAAGGAUAUACAUGAGGAUCACCCAUGUAAAAGAAAGAGGGAAAAGAGAAAAGUAGAAGGUGGAAGAA [Ptolemy VI Philometor]”, the figures for the “apparent KD of MS2 coat protein” value in data set [1] and in data set [2] were 27.5 nM and 32.1 nM, respectively.
As for “AAGAACGAAGGAUAUACAUGAGGAUCACCCAUGUAAAAGAAAGAAAAGGGAAAGAAAAGUAGAAGGUCGAAGAA [Banenre Merenptah]”, the “apparent KD of MS2 coat protein” value was 21.5 nM in data set [1] and 33.1 nM in data set [2].
Turning to “AAGAACGUAGGAUAUACAUGAGGAUCACCCAUGUAAAAGAAAGAGGGAAAAGAGAAAAGUAGAAGGACGAAGAA [Cleopatra II]”, the “apparent KD of MS2 coat protein” value turned out to be 26.1 nM in data set [1] and 38.2 nM in data set [2].
As to “AAGAACUAAGGAUAUACAAAAUAAAAGAAAAGAAAGAAAGAACAUGAGGAUCACCCAUGUAGAAGGUAGAAGAA [Khakheperre Senusret II]”, the “apparent KD of MS2 coat protein” value is 19.9 nM in data set [1] and 15.1 nM in data set [2].
For the sequence “AAGAACUGAGGAUAUACAUGAGGAUCACCCAUGUAAAAGAAAGAGGGAAAAGAGAAAAGUAGAAGGCAGAAGAA [Berenice II]”, the “apparent KD of MS2 coat protein” value in data set [1] worked out at 24.9 nM; in data set [2], 32.4 nM.
Consider “AAGAACUGAGGAUAUACUAAAGAAAUGAAAAGAAAGAAAGAACAUGAGGAUCACCCAUGUAGAAGGCAGAAGAA [Ya'ammu Nubwoserre]”, for which the “apparent KD of MS2 coat protein” value in data set [1] is 29.9 nM; in data set [2] it was 18 nM.
For the sequence “AAGAACUUAGGAUAUACAAGGAAGAAAGAAAAGAAAAGAAAACAUGAGGAUCACCCAUGUAGAAGGAAGUAGAA [EteRNA is fun!]”, the “apparent KD of MS2 coat protein” value amounted to 40.9 nM in data set [1] and 21.5 nM in data set [2].
For the sequence “AAGAAGACAGGAUAUACAAAAUAAAAGAAAAGAAAGAAAGAACAUGAGGAUCACCCAUGUAGAAGGGUCAAGAA [Sekhemkare Amenemhat V]”, the “apparent KD of MS2 coat protein” value in data set [1] was 69.9 nM; in data set [2], 31.1 nM.
For the sequence “AAGAAGAGAGGAUAUACAUGAGGAUCACCCAUGUAAAAGAAAGAAAGGGAAAAGAAAAGUAGAAGGCUCAAGAA [Neferkare-setpenre Ramesses IX]”, the “apparent KD of MS2 coat protein” value in data set [1] was 34.6 nM; in data set [2], 45.7 nM.
Taken in the same sequence, the figures for “AAGAAGCAAGGAUAUACAUGAGGAUCACCCAUGUAAAAGAAAGAGAAGGGAAAGAAAAGUAGAAGGUGCGAAAA [Ruby 71]” were 20.2 nM and 23.7 nM.
“AAGAAGCAAGGAUAUACUAAAGAAAUGAAAAGAAAUAAAGAACAUGAGGAUCACCCAUGUAGAAGGUGCAAGAA [Webenre]”: the “apparent KD of MS2 coat protein” value in data set [1] was found to be 50.4 nM; in data set [2], 39.3 nM.
Turning to “AAGAAGCUAGGAUAUACUAAAGAAAUGAAAAGAAAUAAAGAACAUGAGGAUCACCCAUGUAGAAGGAGCAAGAA [Djefare]”, the “apparent KD of MS2 coat protein” value in data set [1] is 42.3 nM; in data set [2], 18.9 nM.
The matching figures for “AAGAAGGCAGGAUAUACAAAAUAAAAGAAAAGAAAGAAAGAACAUGAGGAUCACCCAUGUAGAAGGGUCAAGAA [Sankhenre Sewadjtu]”: 47.9 nM and 37.2 nM.
The matching figures for “AAGAAGGCAGGAUAUACUAAAGAAAUGAAAAGAAAUAAAGAACAUGAGGAUCACCCAUGUAGAAGGGCCAAGAA [Khakherewre]”: 35.2 nM and 24.1 nM.
Regarding “AAGAAGGUAGGAUAUACUAGGGCAACUAAUGCAAAGAUAGGACAUGAGGAUCACCCAUGUAGAAGGGCCAGAAA [JR_Exc002_Sub403]”, the “apparent KD of MS2 coat protein” value in data set [1] amounted to 48 nM; in data set [2], 59.6 nM.
Regarding “AAGAAGUCAGGAUAUGCUGCUCGUCACGAAAGUGAUGAGUAGCAGAAGGGACAUGAGGAUCACCCAUGUAAAGA [Exclusion 4.1 (Exclusion4-cac2 - the real original)]”, the “apparent KD of MS2 coat protein” value in data set [1] is 55.2 nM; in data set [2], 66.6 nM.
Take “AAGAAGUGAGGAUAUACAAAAUAAAAGAAAAGAAAGAAAGAACAUGAGGAUCACCCAUGUAGAAGGCACAAGAA [Sekhemkare Amenemhat V]”: the “apparent KD of MS2 coat protein” value worked out at 22 nM in data set [1] and 17.8 nM in data set [2].
On to “AAGAAGUGAGGAUAUACAUGAGGAUCACCCAUGUUAAGAAGAAUUUUAGAGAAAGAAGGUAGAAGGCACAAGAA [JR_Exclusion3_Sub5]”, for which the “apparent KD of MS2 coat protein” value in data set [1] was determined as 34.7 nM; in data set [2], 35.3 nM.
Turning to “AAGAAGUGAGGAUAUCGAAGACUGUCGAAAAGACAGUCGAACGAGAAGGCACAUGAGGAUCACCCAUGUGGGAG [Mat - Exaclusion 4 - Eli mod - D71]”, the “apparent KD of MS2 coat protein” value in data set [1] was determined as 80.5 nM; in data set [2], 176 nM.
Taken in the same sequence, the figures for “AAGAAGUGAGGAUAUCGUGCUCGUCACAAAAGUGAUGAGUACGAGAAGGCACAUGAGGAUCACCCAUGUAAAGA [Opal 36]” were 40.1 nM and 52.6 nM.
For the sequence “AAGAAUCGAGGAUAUACAAGAAAGAAAGAAAAGAAAAGAAAACAUGAGGAUCACCCAUGUAGAAGGCGAUAGAA [EteRNA is fun!]”, the “apparent KD of MS2 coat protein” value in data set [1] stood at 22 nM; in data set [2] it was 24.6 nM.
Take “AAGAAUGGAGGAUAUACAUGAGGAUCACCCAUGUAAAAGAAAGAAGGGAAAGAGAAAAGUAGAAGGCCAAAGAA [Khuinefertemre Taharqa]”: the “apparent KD of MS2 coat protein” value in data set [1] was 26.5 nM; in data set [2], 53.8 nM.
“AAGAUCAGAGGAUAUACAUAAGGUGAUGAAAACAUCGCCAAACAUGAGGAUCACCCAUGUAGAAGGCUGAUCAA [JL EX2 1]”: the “apparent KD of MS2 coat protein” value in data set [1] was 118 nM; in data set [2], 231 nM.
